Measurements: the supplement of paper PMC9112550, “Optimization of the antimicrobial peptide Bac7 by deep mutational scanning” (BMC Biology, 2022)

Test system: Escherichia coli TOP10
Experiment: shrunken log2 fold change of peptide-encoding DNA abundance (4.5 h post-induction vs induction); higher = less antimicrobial activity (less host growth inhibition)
Settings: time post-induction: 4.5 h; library: site-saturation at positions 5, 18, 19, 20
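Also: peptides expressed intracellularly from a pBAD plasmid library in pooled LB shake-flask culture, induced with 0.3% L-arabinose, DNA abundance read by NGS, three biological replicates, DESeq2 with apeglm shrinkage.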

Sequence	shrunken log2 fold change
RRIRVRPPRLPRPRPRPDTRPRP	-0.129
RRIRARPPRLPRPRPRPYYVPRP	-0.169
RRIRGRPPRLPRPRPRPYMQPRP	-0.212
RRIRSRPPRLPRPRPRPPIRPRP	0.129
RRIRDRPPRLPRPRPRPPENPRP	0.856
RRIRMRPPRLPRPRPRPGANPRP	1.17
RRIRDRPPRLPRPRPRPVSIPRP	-0.105
RRIRERPPRLPRPRPRPTQSPRP	0.329
RRIRWRPPRLPRPRPRPSPTPRP	0.0554
RRIRRRPPRLPRPRPRPVVDPRP	0.372
RRIRLRPPRLPRPRPRPVAMPRP	0.0144
RRIRMRPPRLPRPRPRPYTDPRP	-0.161
RRIRHRPPRLPRPRPRPATSPRP	-0.00994
RRIRTRPPRLPRPRPRPWTQPRP	0.0256
RRIRGRPPRLPRPRPRPYVDPRP	-0.0322
RRIRQRPPRLPRPRPRPAVTPRP	0.167
RRIRFRPPRLPRPRPRPTATPRP	0.355
RRIRNRPPRLPRPRPRPYFTPRP	-0.47
RRIRVRPPRLPRPRPRPHGCPRP	-0.041
RRIRNRPPRLPRPRPRPCPRPRP	-0.0673
RRIRFRPPRLPRPRPRPSCCPRP	-0.443
RRIRNRPPRLPRPRPRPDWCPRP	0.0226

Sequence	shrunken log2 fold change
RRIRARPPRLPRPRPRPCALPRP	0.00197
RRIRGRPPRLPRPRPRPRGGPRP	1.05
RRIRRRPPRLPRPRPRPHCLPRP	-0.192
RRIRARPPRLPRPRPRPATEPRP	0.795
RRIRLRPPRLPRPRPRPYTWPRP	-0.716
RRIRPRPPRLPRPRPRPMTRPRP	0.0702
RRIRCRPPRLPRPRPRPDTPPRP	0.0764
RRIRFRPPRLPRPRPRPVQVPRP	-0.416
RRIRPRPPRLPRPRPRPCKHPRP	-0.131
RRIRYRPPRLPRPRPRPYIVPRP	-0.496
RRIRGRPPRLPRPRPRPWVFPRP	0.758
RRIRLRPPRLPRPRPRPVGNPRP	0.0885
RRIRNRPPRLPRPRPRPHYLPRP	-0.218
RRIRWRPPRLPRPRPRPGSPPRP	0.0119
RRIRCRPPRLPRPRPRPFTFPRP	-0.351
RRIRPRPPRLPRPRPRPVNLPRP	-0.136
RRIRKRPPRLPRPRPRPYGSPRP	-0.224
RRIRWRPPRLPRPRPRPMKMPRP	-0.0851
RRIRYRPPRLPRPRPRPIWVPRP	-0.0696
RRIRHRPPRLPRPRPRPNYDPRP	-0.471
RRIRDRPPRLPRPRPRPVPSPRP	0.314
RRIRSRPPRLPRPRPRPPTWPRP	0.326

Sequence	shrunken log2 fold change
RRIRVRPPRLPRPRPRPGCYPRP	-0.112
RRIRWRPPRLPRPRPRPPMIPRP	-0.103
RRIRHRPPRLPRPRPRPDEEPRP	-0.0946
RRIRKRPPRLPRPRPRPKPWPRP	0.526
RRIRSRPPRLPRPRPRPMISPRP	-0.453
RRIRGRPPRLPRPRPRPSIVPRP	0.124
RRIRKRPPRLPRPRPRPTIEPRP	0.236
RRIRTRPPRLPRPRPRPFPSPRP	0.0745
RRIRGRPPRLPRPRPRPSKQPRP	-0.0392
RRIRRRPPRLPRPRPRPPKCPRP	0.423
RRIRERPPRLPRPRPRPMHDPRP	-0.286
RRIRHRPPRLPRPRPRPIHPPRP	-0.154
RRIRPRPPRLPRPRPRPRVTPRP	0.326
RRIRMRPPRLPRPRPRPSQKPRP	0.246
RRIRARPPRLPRPRPRPPQKPRP	1.29
RRIRDRPPRLPRPRPRPTFFPRP	2.16
RRIRYRPPRLPRPRPRPFSMPRP	-0.00208
RRIRRRPPRLPRPRPRPMQYPRP	-0.126
RRIRKRPPRLPRPRPRPSLWPRP	0.187
RRIRDRPPRLPRPRPRPPEVPRP	0.705
RRIRCRPPRLPRPRPRPCYFPRP	-0.779
RRIRPRPPRLPRPRPRPRPNPRP	0.505

Sequence	shrunken log2 fold change
RRIRARPPRLPRPRPRPCMYPRP	-0.49
RRIRIRPPRLPRPRPRPVDQPRP	-0.0969
RRIRHRPPRLPRPRPRPQHTPRP	-0.386
RRIRHRPPRLPRPRPRPARDPRP	0.147
RRIRIRPPRLPRPRPRPCPVPRP	-0.523
RRIRGRPPRLPRPRPRPHARPRP	0.629
RRIRIRPPRLPRPRPRPQHRPRP	-0.116
RRIRPRPPRLPRPRPRPLKTPRP	-0.000587
RRIRVRPPRLPRPRPRPAWVPRP	0.459
RRIRWRPPRLPRPRPRPYYKPRP	-0.823
RRIRIRPPRLPRPRPRPNHWPRP	0.0534
RRIRQRPPRLPRPRPRPHCAPRP	0.0396
RRIRERPPRLPRPRPRPSKPPRP	0.0303
RRIRPRPPRLPRPRPRPPRQPRP	0.334
RRIRERPPRLPRPRPRPQINPRP	-0.586
RRIRPRPPRLPRPRPRPAYAPRP	0.16
RRIRQRPPRLPRPRPRPRGMPRP	0.143
RRIRQRPPRLPRPRPRPTGGPRP	0.0146
RRIRFRPPRLPRPRPRPCQKPRP	0.033
RRIRMRPPRLPRPRPRPICIPRP	0.0141
RRIRIRPPRLPRPRPRPFLLPRP	-0.563
RRIRGRPPRLPRPRPRPLDDPRP	1.09

Sequence	shrunken log2 fold change
RRIRERPPRLPRPRPRPDQHPRP	-0.165
RRIRARPPRLPRPRPRPYGTPRP	-0.131
RRIRMRPPRLPRPRPRPSTHPRP	0.021
RRIRERPPRLPRPRPRPMSLPRP	0.0379
RRIRIRPPRLPRPRPRPWMYPRP	-0.184
RRIRIRPPRLPRPRPRPWQVPRP	0.0844
RRIRIRPPRLPRPRPRPYEDPRP	-0.00133
RRIRKRPPRLPRPRPRPVQVPRP	-0.0596
RRIRDRPPRLPRPRPRPWVVPRP	0.0765
RRIRFRPPRLPRPRPRPIERPRP	0.116
RRIRCRPPRLPRPRPRPSFPPRP	-0.608
RRIRLRPPRLPRPRPRPRTWPRP	0.111
RRIRPRPPRLPRPRPRPIRSPRP	0.00396
RRIRQRPPRLPRPRPRPWGWPRP	0.546
RRIRGRPPRLPRPRPRPQYRPRP	0.0878
RRIRSRPPRLPRPRPRPEEDPRP	-0.00277
RRIRVRPPRLPRPRPRPSRKPRP	0.00977
RRIRIRPPRLPRPRPRPNETPRP	-0.0216
RRIRIRPPRLPRPRPRPNISPRP	-0.199
RRIRMRPPRLPRPRPRPFVYPRP	-0.00869
RRIRARPPRLPRPRPRPESKPRP	0.015
